The record followed here is patent US8349320 (dated 2013).

For assay [1], the target named is T1, mouse BTLA expressed on cells (mouse, UniProt Q7TSA3 30-306).
T1 chain: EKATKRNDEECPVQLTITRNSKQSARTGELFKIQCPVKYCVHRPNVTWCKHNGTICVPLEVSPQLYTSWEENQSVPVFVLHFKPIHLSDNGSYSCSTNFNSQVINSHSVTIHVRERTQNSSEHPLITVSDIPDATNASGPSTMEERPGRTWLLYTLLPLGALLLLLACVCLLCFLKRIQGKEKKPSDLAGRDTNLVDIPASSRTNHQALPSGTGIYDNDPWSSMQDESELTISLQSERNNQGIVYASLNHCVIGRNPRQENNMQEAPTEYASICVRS
As to the kind of experiment: FACS binding to transfected 293T cells; top panel. For orientation: A flow cytometer gives signals particle by particle.

Assay [2] addresses T2, human BTLA expressed on cells (human, UniProt Q7Z6A9 31-289). As to the kind of experiment: FACS binding to transfected 293T cells; top panel.
Assay [3] addresses T2, human BTLA expressed on cells. As to the kind of experiment: FACS binding to transfected 293T cells; bottom panel; axis printed mHVEM:Fc, presumably hHVEM:Fc.

T2 sequence (Q7Z6A9 31-289): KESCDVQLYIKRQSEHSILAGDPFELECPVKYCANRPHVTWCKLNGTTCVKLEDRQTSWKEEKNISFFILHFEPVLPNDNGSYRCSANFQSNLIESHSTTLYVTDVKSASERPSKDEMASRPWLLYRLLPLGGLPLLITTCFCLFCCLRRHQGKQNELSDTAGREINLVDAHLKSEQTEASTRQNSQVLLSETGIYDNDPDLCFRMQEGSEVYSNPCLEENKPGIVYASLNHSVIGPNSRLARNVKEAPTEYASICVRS

B1: mouse HVEM-Fc (Fc fusion)
chain: QPSCRQEEFLVGDECCPMCNPGYHVKQVCSEHTGTVCAPCPPQTYTAHANGLSKCLPCGVCDPDMGLLTWQECSSWKDTVCRCIPGYFCENQDGSHCSTCLQHTTCPPGQRVEKRGTHDQDTVCADCLTGTFSLGGTQEECLPWTNCSAFQQEVRRGTNSTDTTCSSQ
As for B1, the EC50 (commonly the concentration that produces a half-maximal response) in assay [1] stood at 0.8 µg/mL; in assay [2], 0.5 µg/mL.

B2: human HVEM-Fc (Fc fusion)
chain: LPSCKEDEYPVGSECCPKCSPGYRVKEACGELTGTVCEPCPPGTYIAHLNGLSKCLQCQMCDPAMGLRASRNCSRTENAVCGCSPGHFCIVQDGDHCAACRAYATSSPGQRVQKGGTESQDTLCQNCPPGTFSPNGTLEECQHQTKCSWLVTKAGAGTSSSHWV
modifications: in the FIG. 3H assay biotinylated with NHS-PEO4-Biotin, 2 biotin molecules per HVEM-Fc (sites not given)
Molecule B2 displayed an EC50 in assay [3] above 25 µg/mL.
